Among the data in article PMC9263355 (2022) are Kd values, retold here.

This test addresses 4-1BB (Homo sapiens, UniProt Q07011). Briefly: fluorescence anisotropy.

4-1BB, sequence (Q07011 24-255): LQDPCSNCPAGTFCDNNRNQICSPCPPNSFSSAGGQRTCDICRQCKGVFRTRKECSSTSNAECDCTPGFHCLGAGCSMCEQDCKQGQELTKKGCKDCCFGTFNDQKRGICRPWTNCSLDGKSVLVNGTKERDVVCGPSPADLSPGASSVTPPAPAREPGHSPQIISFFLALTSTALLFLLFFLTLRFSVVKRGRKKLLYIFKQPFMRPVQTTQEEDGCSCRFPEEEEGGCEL

B1: Galectin-9N N-terminal CRD (protein)
chain: MAFSGSQAPYLSPAVPFSGTIQGGLQDGLQITVNGTVLSSSGTRFAVNFQTGFSGNDIAFHFNPRFEDGGYVVCNTRQNGSWGPEERKTHMPFQKGMPFDLCFLVQSSDFKVMVNGILFVQYFHRVPFHRVDTISVNGSVQLSYISFQ
Take B1: the Kd – broadly, the constant that tells how readily two partners part at equilibrium – is about 1500 nM.
